To fix the notation:
B1: Sh24C05-45 (antibody, human IgG1, kappa, V domains shown)
VH: EVQLVESGGGLVKPGGSLRLSCAASGFTFSDYAMSWVRQAPGKGLEWVSTISDGGTYTYYPDNVKGRFTISRDNAKNSLYLQMNSLRAEDTAVYYCAREWGDYDGFDYWGQGTLVTVSS
VL: DIQMTQSPSSLSASVGDRVTITCRASQEISGYLSWYQQKPGKAPKLLIYAASTLDSGVPSRFSGSGSGTDFTLTISSLQPEDFATYYCLQYDSYPYTFGQGTKLEIKR
notes: Humanized, human IgG1/kappa
B2: Sh24C05-18 (antibody, human IgG1, kappa)
heavy: not shown
light: DIQMTQSPSSLSASVGDRVTITCRASQEISGYLSWLQQKPGGAIKRLIYAASTLDSGVPSRFSGSGSGSDYTLTISSLQPEDFATYYCLQYDSYPYTFGQGTKLEIKRTVAAPSVFIFPPSDEQLKSGTASVVCLLNNFYPREAKVQWKVDNALQSGNSQESVTEQDSKDSTYSLSSTLTLSKADYEKHKVYACEVTHQGLSSPVTKSFNRGEC
notes: Humanized, human IgG1/kappa
B3: Sh24C05-14 (antibody, human IgG1, kappa)
heavy: not shown
light: DIQMTQSPSSLSASVGDRVTITCRASQEISGYLSWLQQKPGGAIKRLIYAASTLDSGVPSRFSGSGSGSDYTLTISSLQPEDFATYYCLQYDSYPYTFGQGTKLEIKRTVAAPSVFIFPPSDEQLKSGTASVVCLLNNFYPREAKVQWKVDNALQSGNSQESVTEQDSKDSTYSLSSTLTLSKADYEKHKVYACEVTHQGLSSPVTKSFNRGEC
notes: Humanized, human IgG1/kappa
B4: Sh24C05-19 (antibody, human IgG1, kappa, V domains shown)
VH: QVQLVESGGGLVKPGGSLRLSCAASGFTFSDYAMSWIRQAPGKGLEWVSTISDGGTYTYYPDNVKGRFTISRDNAKNSLYLQMNSLRAEDTAVYYCAREWGDYDGFDYWGQGTLVTVSS
VL: DIQMTQSPSSLSASVGDRVTITCRASQEISGYLSWLQQKPGGAIKRLIYAASTLDSGVPSRFSGSGSGSDYTLTISSLQPEDFATYYCLQYDSYPYTFGQGTKLEIKR
notes: Humanized, human IgG1/kappa
B5: Sh24C05-15 (antibody, human IgG1, kappa, V domains shown)
VH: EVQLVESGGGLVKPGGSLRLSCAASGFTFSDYAMSWVRQAPGKGLEWVSTISDGGTYTYYPDNVKGRFTISRDNAKNSLYLQMNSLRAEDTAVYYCAREWGDYDGFDYWGQGTLVTVSS
VL: DIQMTQSPSSLSASVGDRVTITCRASQEISGYLSWLQQKPGGAIKRLIYAASTLDSGVPSRFSGSGSGSDYTLTISSLQPEDFATYYCLQYDSYPYTFGQGTKLEIKR
notes: Humanized, human IgG1/kappa
B6: Sh24C05-16 (antibody, human IgG1, kappa, V domains shown)
VH: EVQLLESGGGLVQPGGSLRLSCAASGFTFSDYAMSWVRQAPGKGLEWVSTISDGGTYTYYPDNVKGRFTISRDNSKNTLYLQMNSLRAEDTAVYYCAREWGDYDGFDYWGQGTLVTVSS
VL: DIQMTQSPSSLSASVGDRVTITCRASQEISGYLSWLQQKPGGAIKRLIYAASTLDSGVPSRFSGSGSGSDYTLTISSLQPEDFATYYCLQYDSYPYTFGQGTKLEIKR
notes: Humanized, human IgG1/kappa
B7: Sh24C05-20 (antibody, human IgG1, kappa)
heavy: not shown
light: DIQMTQSPSSLSASVGDRVTITCRASQEISGYLSWFQQKPGKAPKSLIYAASTLDSGVPSRFSGSGSGTDFTLTISSLQPEDFATYYCLQYDSYPYTFGQGTKLEIKRTVAAPSVFIFPPSDEQLKSGTASVVCLLNNFYPREAKVQWKVDNALQSGNSQESVTEQDSKDSTYSLSSTLTLSKADYEKHKVYACEVTHQGLSSPVTKSFNRGEC
notes: Humanized, human IgG1/kappa

The target in this test is T1, recombinant human ErbB3 monomeric protein (cleaved rhErbB3) (human, UniProt P21860 20-643, limits assumed).
T1 construct: Monomer made by protease cleavage of the Fc fusion; also called Monomeric ErbB3
Briefly: SPR Biacore 37 C; supernatant antibody captured on anti-human Fc, cleaved rhErbB3 injected. As to the method:
The analyses were performed at 37° C. using PBS (Invitrogen, Catalog No. 14040-133) containing 0.05% surfactant P20 (Biacore, Catalog No. BR-1000-54) as running buffer.
The antibodies were captured in individual flow cells at a flow rate of […]. Injection time was varied for each antibody to yield an Rₘₐₓ between 30 and 60 RU. […] The dissociation phase was monitored for up to 1200 seconds. The surface was then regenerated with two 60 second injections of Glycine pH 2.25 (made from Glycine pH 2.0 (Biacore, Catalog No. BR-1003-55) and pH 2.5 (Biacore, Catalog No. BR-1003-56)) at […].
Kinetic parameters were determined using the kinetic function of the BIAevaluation software (Biacore) with double reference subtraction. Kinetic parameters for each antibody, kₐ (association rate constant), kd (dissociation rate constant) and KD (equilibrium dissociation constant) were determined.
(In SPR one partner is held on a chip, and binding of the other changes the refractive index at the surface.)
For orientation: Kd means the constant that tells how readily two partners part at equilibrium. One may read the koff as a measure of how fast the partners let go of each other. In general, kon refers to a measure of how fast the partners come together. B1: the Kd came to 707 pM, the koff turned out to be 0.00606 s⁻¹ and the association rate constant (kon) is 8.57e+06 M⁻¹ s⁻¹.

Take B2: the Kd came to 161 pM, the koff amounted to 0.000463 s⁻¹ and the kon came out at 2.88e+06 M⁻¹ s⁻¹.

On to B3, for which the Kd was 173 pM, the off-rate constant (koff) stood at 0.000498 s⁻¹ and the kon turned out to be 2.88e+06 M⁻¹ s⁻¹.

For B4, the Kd came to 85.5 pM, the koff came out at 0.000255 s⁻¹ and the kon worked out at 3e+06 M⁻¹ s⁻¹.

As to B5, the Kd turned out to be 187 pM, the koff amounted to 0.000499 s⁻¹ and the kon is 2.67e+06 M⁻¹ s⁻¹.

As for B6, the Kd was found to be 147 pM, the koff was 0.000404 s⁻¹ and the kon was 2.75e+06 M⁻¹ s⁻¹.

Take B7: the Kd worked out at 221 pM, the koff was 0.000591 s⁻¹ and the kon worked out at 2.67e+06 M⁻¹ s⁻¹.
